# Assay results published in patent publication US20050282739A1.
# Square brackets hold non-standard residues; d marks the D form. Ends that are not written are not given here. Nle = CCCC[C@H](N)C(=O)O
# B1: metallopeptide 12-1 (peptide)
# peptide: [dF]QWVCGHLL-NH2
# modifications: bridge (positions not given here) via ReOCl3(PPh3)2; also: oxorhenium(V) N3S1 tetradentate complex at Cys 5
# B2: metallopeptide 12-3 (peptide)
# peptide: [dF]QWVCVHLL-NH2
# modifications: bridge (positions not given here) via ReOCl3(PPh3)2; also: oxorhenium(V) N3S1 tetradentate complex at Cys 5
# B3: metallopeptide 12-2 (peptide)
# peptide: [dF]QWACVHLL-NH2
# modifications: bridge (positions not given here) via ReOCl3(PPh3)2; also: oxorhenium(V) N3S1 tetradentate complex at Cys 5
# B4: metallopeptide 12-4 (peptide)
# peptide: [dF]QWVCHLL-NH2
# modifications: bridge (positions not given here) via ReOCl3(PPh3)2; also: oxorhenium(V) N3S1 tetradentate complex at Cys 5
# B5: metallopeptide 12-6 (peptide)
# peptide: [dF]QWCVHLL-NH2
# modifications: bridge (positions not given here) via ReOCl3(PPh3)2; also: oxorhenium(V) N3S1 tetradentate complex at Cys 4
# B6: metallopeptide 4-6 (peptide)
# peptide: YV[Nle]GHFCRWDRF-NH2
# modifications: also: oxorhenium(V) N3S1 chelate: C7 SG + backbone N of H5, F6, C7, bridge at 7 via Re(V)=O, other end not in the chain
# B7: metallopeptide 4-7 (peptide)
# peptide: YV[Nle]GHCFRWDRF-NH2
# modifications: also: oxorhenium(V) N3S1 chelate: C6 SG + backbone N of G4, H5, C6, bridge at 6 via Re(V)=O, other end not in the chain
# B8: metallopeptide 4-9 (peptide)
# peptide: YV[Nle]CGHFRWDRF-NH2
# modifications: also: oxorhenium(V) N3S1 chelate: C4 SG + backbone N of V2, X3, C4, bridge at 4 via Re(V)=O, other end not in the chain
# B9: metallopeptide 4-8 (peptide)
# peptide: YV[Nle]GCHFRWDRF-NH2
# modifications: also: oxorhenium(V) N3S1 chelate: C5 SG + backbone N of X3, G4, C5, bridge at 5 via Re(V)=O, other end not in the chain
# B10: metallopeptide 4-10 (peptide)
# peptide: YVC[Nle]GHFRWDRF-NH2
# modifications: bridge (positions not given here); not fully specified (bridges); printed as Tyr-Val-Cys-Nle-Gly-His-Phe-Arg-Trp-Asp-Arg-Phe-NH2.; also: oxorhenium(V) N3S1 complex
# Biological target: bombesin receptor of rat brain membranes (rat)
# Test: 125I-Bombesin competition, rat brain membranes
row,% Inhibition,Binder
1,2%,B1
2,14%,B2
3,8%,"WAVC-NH2 (also: bridge at 4 via oxorhenium(V) N3S1 chelate, other end not in the chain) [metallopeptide 11-14]"
4,3%,B3
5,5%,B4
6,10%,B5

# Biological target: human melanocortin-3 receptor (hMC3-R) (human) (UniProt P41968)
# Sequence (P41968 whole entry): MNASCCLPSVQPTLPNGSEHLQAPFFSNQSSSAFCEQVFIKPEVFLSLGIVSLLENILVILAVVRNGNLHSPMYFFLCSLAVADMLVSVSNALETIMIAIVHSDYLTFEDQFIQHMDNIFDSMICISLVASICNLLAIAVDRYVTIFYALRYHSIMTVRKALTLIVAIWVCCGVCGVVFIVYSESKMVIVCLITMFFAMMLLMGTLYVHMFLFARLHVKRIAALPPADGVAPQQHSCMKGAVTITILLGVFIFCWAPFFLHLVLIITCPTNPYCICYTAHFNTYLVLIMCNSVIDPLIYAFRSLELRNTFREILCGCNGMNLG
# Test: 125I-NDP-α-MSH competition, hMC3-R membranes
row,% Inhibition at 1 µM,Binder
1,6%,Ac-SYS[Nle]EHFRWGKGCV-NH2 (also: oxorhenium(V) N3S1 chelate at Cys13) [metallopeptide 1-2]
2,5%,Ac-SYS[dC][Nle]EHFRWGKPV-NH2 (also: oxorhenium(V) N3S1 chelate at D-Cys4) [metallopeptide 2-11]

# Biological target: melanocortin-1 receptor (MC1-R) of B-16 mouse melanoma cells (mouse) (UniProt Q01727)
# Sequence (Q01727 whole entry): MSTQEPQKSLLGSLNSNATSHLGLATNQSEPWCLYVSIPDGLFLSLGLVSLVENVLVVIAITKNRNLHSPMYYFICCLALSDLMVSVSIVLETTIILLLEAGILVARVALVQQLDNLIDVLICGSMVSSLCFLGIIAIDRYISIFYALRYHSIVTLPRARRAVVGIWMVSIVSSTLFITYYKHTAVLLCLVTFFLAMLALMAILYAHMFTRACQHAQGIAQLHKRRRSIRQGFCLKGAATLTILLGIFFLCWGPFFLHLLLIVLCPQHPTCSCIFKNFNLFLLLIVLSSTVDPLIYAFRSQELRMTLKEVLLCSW
# Test: 125I-NDP-α-MSH competition, B-16 membranes
row,% Inhibition at 1 µM,Binder
1,-8%,B6
2,4%,B7
3,1%,B8

# Biological target: human melanocortin-4 receptor (hMC4-R) (human) (UniProt P32245)
# Sequence (P32245 whole entry): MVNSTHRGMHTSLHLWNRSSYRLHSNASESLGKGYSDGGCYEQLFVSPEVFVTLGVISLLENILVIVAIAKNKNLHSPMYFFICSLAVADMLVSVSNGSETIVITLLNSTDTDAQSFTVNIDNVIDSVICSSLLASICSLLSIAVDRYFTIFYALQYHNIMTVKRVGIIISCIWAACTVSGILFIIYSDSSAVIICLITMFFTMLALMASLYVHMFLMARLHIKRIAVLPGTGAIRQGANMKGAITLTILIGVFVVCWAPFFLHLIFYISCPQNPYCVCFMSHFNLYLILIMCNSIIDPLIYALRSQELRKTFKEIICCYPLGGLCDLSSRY
# Test: 125I-NDP-α-MSH competition, hMC4-R membranes
row,% Inhibition at 1 µM,Binder
1,-1%,B9
2,2%,B10
3,3%,Ac-SYS[Nle]ECHFRWGKPV-NH2 (also: oxorhenium(V) N3S1 chelate at Cys6) [metallopeptide 1-9]
4,4%,B7
5,4%,B8
6,7%,Ac-SYS[Nle]CEHFRWGKPV-NH2 (also: oxorhenium(V) N3S1 chelate at Cys5) [metallopeptide 1-10]

# Biological target: human melanocortin-5 receptor (hMC5-R) (human) (UniProt P33032)
# Sequence (P33032 whole entry): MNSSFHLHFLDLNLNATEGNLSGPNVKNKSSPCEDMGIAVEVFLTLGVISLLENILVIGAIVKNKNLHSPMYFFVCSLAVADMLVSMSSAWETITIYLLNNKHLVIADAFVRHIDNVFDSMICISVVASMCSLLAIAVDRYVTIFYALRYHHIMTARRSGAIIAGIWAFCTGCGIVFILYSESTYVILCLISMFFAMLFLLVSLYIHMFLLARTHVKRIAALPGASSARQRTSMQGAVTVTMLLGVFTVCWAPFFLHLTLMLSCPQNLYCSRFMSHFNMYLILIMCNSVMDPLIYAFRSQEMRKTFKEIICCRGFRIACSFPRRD
# Test: 125I-NDP-α-MSH competition, hMC5-R membranes
row,% Inhibition at 1 µM,Binder
1,6%,Ac-SYS[Nle]EHFRWGCKPV-NH2 (also: oxorhenium(V) N3S1 chelate at Cys11) [metallopeptide 1-4]
